From publication PMC9513677, “Systematic multi‐level analysis of an organelle proteome reveals new peroxisomal functions” (Molecular Systems Biology, 2022) come the findings set out here.

This test has as its target T1, Full‐length Saccharomyces cerevisiae Pex5 (purified, for fluorescence anisotropy) (Saccharomyces cerevisiae, UniProt P35056 1-612).
T1 construct: Pex5, peroxisomal targeting factor (PTS1 receptor), Saccharomyces cerevisiae, full length; also called purified yeast Pex5; source: expressed in autoinduction medium, purified (Ni‐NTA, TEV digestion, second Ni‐NTA, gel filtration Superdex 200)
T1 sequence (looked up): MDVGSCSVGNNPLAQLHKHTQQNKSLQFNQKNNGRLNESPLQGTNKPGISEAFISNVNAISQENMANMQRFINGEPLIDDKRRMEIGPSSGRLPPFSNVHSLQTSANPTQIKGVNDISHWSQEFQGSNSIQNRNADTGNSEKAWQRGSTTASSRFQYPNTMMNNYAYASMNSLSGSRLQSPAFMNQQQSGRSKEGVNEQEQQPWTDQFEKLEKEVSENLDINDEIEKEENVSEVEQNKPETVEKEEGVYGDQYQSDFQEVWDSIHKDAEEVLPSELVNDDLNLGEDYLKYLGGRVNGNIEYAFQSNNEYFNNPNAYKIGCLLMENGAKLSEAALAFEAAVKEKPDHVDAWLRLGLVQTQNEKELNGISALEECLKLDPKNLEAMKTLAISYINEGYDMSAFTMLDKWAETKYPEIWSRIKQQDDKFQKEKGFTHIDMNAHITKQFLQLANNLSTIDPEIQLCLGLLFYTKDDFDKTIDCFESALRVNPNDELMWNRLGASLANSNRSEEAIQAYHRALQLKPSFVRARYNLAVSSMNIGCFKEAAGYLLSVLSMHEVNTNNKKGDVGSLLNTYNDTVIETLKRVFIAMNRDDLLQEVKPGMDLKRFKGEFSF
The test can be described thus: fluorescence polarisation; fluorescence anisotropy; FITC peptide at 10 nM, Pex5 in serial dilution; 50 mM Hepes pH 7.5, 150 mM NaCl; black 96-well plates, excitation/detection 470/530 nm; three independent experiments; binding-saturation model with one binding site. The note with it: both partners purified.

Primed or numbered codes have the meaning given here. Where no end group is shown, it is not given here. FITC′ = fluorescein isothiocyanate

B1: FITC-labeled peptide of the carboxyl‐terminal 10 amino acids of Yhl045w (Pxp3) (peptide)
peptide: {FITC′}-RKRVLGVAYL
notes: Yhl045w (Pxp3, Peroxisomal protein 3), Saccharomyces cerevisiae, the carboxyl-terminal 10 amino acids; also called Pxp3 motif; Pxp3 targeting peptide; source: synthetic peptide (Genscript)
In turn, B1 returned a Kd of 9.5 ± 2.9 µM.

B2: FITC-labeled peptide of the carboxyl terminus of Idp3 (known PTS1 motif) (peptide)
peptide: {FITC′}-YEDKKGMCKL
notes: tyrosine added at the N terminal of the Idp3 peptide for concentration determination; not part of Idp3; Idp3, Saccharomyces cerevisiae, carboxyl terminus with the PTS1 motif; also called PTS1 motif from Idp3; source: synthetic peptide (Genscript)
Regarding B2, the Kd was 5.5 ± 0.5 µM.
